Results taken from publication PMC10023946 (The Journal of Biological Chemistry, 2023).
Positions count from the first letter of the chain named. Numbers in names are those of the source.

Assays:
[1] = target: T1, cytochrome P450 17A1 (CYP17A1) (Homo sapiens, UniProt P05093); format: biochemical
T1 sequence (P05093 20-508): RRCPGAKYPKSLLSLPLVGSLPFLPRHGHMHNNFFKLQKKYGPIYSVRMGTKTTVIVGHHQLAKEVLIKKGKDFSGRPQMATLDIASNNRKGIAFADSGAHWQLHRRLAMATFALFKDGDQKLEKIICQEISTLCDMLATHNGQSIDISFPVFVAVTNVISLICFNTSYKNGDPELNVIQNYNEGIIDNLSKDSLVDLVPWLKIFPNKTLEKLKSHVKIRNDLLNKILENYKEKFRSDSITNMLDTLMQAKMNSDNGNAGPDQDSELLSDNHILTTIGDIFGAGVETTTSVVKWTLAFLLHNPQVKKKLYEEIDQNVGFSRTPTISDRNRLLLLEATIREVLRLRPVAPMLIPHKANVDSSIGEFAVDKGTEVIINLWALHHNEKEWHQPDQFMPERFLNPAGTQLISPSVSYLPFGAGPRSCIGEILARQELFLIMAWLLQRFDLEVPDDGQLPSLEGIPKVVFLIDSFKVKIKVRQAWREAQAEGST

CYP17A1 N52Y = target: T2, CYP17A1 N52Y (Homo sapiens, UniProt P05093, N52Y); assay: X-ray co-crystal structure, […] Å; format: biochemical
T2 sequence (P05093 20-508 N52Y): T1 sequence (P05093 20-508) with N33Y

purified protein [2] = substrate: CC(=O)[C@@]1(O)CC[C@H]2[C@@H]3CC=C4C[C@@H](O)CC[C@]4(C)[C@H]3CC[C@@]21C; assay: purified protein; settings: heme displacement of heme-coordinated water
purified protein [3] = substrate: CC(=O)[C@H]1CC[C@H]2[C@@H]3CCC4=CC(=O)CC[C@]4(C)[C@H]3CC[C@]12C; assay: purified protein

C[C@]12CC[C@H](O)CC1=CC[C@@H]1[C@@H]2CC[C@]2(C)C(c3cccnc3)=CC[C@@H]12 [abiraterone]
IC50 [1]: 69 ± 5 nM | IC50 (CYP17A1 N52Y): 51 ± 2 nM

B1: CYP17A1 N52Y (Homo sapiens; N52Y) (protein)
chain: T1 sequence (P05093 20-508) with N33Y
Km (purified protein [2]): 0.6 ± 0.1 µM | Km (purified protein [3]; heme displacement of heme-coordinated water): 1.60 ± 0.09 µM

B2: cytochrome P450 17A1 (CYP17A1) (Homo sapiens) (protein)
chain: T1 sequence (P05093 20-508)
Km (purified protein [3]; heme): 5.2 ± 0.5 µM
